Values belong to the substance of their own block, whether it stands above or below them.
Assays:
Assay in all cases: SEC; gel filtration on HiPrep 16/60 Sephacryl S-200 HR in 20 mM Tris-HCl, 1.5 M NaCl, 50 mM imidazole, pH 7.4; molecular mass estimated against standard proteins
[1] = target: Universal stress protein USP5 from Haloferax mediterranei (Haloferax mediterranei)
[2] = target: Universal stress protein USP21 from Haloferax mediterranei (Haloferax mediterranei)
[3] = target: Universal stress protein USP28 from Haloferax mediterranei (Haloferax mediterranei)

stoichiometry N [1]: 2
Substance: Universal stress protein USP5 from Haloferax mediterranei (natural protein)

stoichiometry N [2]: 2
Substance: Universal stress protein USP21 from Haloferax mediterranei (natural protein)

stoichiometry N [3]: 2
Substance: Universal stress protein USP28 from Haloferax mediterranei (natural protein)

Reference: PMC10791855
